# In PMC8533620, “The Role of the C-Terminal Lysine of S100P in S100P-Induced Cell Migration and Metastasis” (Biomolecules, 2021):
# Changes are numbered by the printed parent chain. Numbers in names are those of the source. Where “and” joins values, the source holds several entries; their conditions need not be identical. Equal entries are not always repeated.
# T1: recombinant protein consisting of the 149 C-terminal amino acids of NMMIIA (UniProt P35579 1812-1960)
# T1 construct: non-muscle myosin heavy chain isoform IIA (NMMIIA), the 149 C-terminal amino acids; also called rNMMIIA; recombinant C-terminal fragment of non-muscle myosin II heavy chain; source: recombinant
# T1 sequence (looked up): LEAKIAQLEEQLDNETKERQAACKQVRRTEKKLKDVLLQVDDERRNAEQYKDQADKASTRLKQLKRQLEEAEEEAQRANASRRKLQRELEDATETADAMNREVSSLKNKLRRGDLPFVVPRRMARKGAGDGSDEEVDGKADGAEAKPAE
# B1: wild-type recombinant S100P protein (natural protein, human, UniProt P25815 1-95, looked up)
# chain: MTELETAMGMIIDVFSRYSGSEGSTQTLTKGELKVLMEKELPGFLQSGKDKDAVDKLLKDLDANGDAQVDFSEFIVFVAAITSACHKYFEKAGLK
# notes: S100P, human, 95-amino-acid monomer; cDNA encoding the wild-type protein in pET15b; primers on GenBank NM_005980 run from the ATG (95) to the stop codon (382); also called rS100P; wild-type rS100P; source: recombinant protein from a cDNA in pET15b vector; details in Supplementary Methods S1
# B2: K95A mutant recombinant S100P protein (natural protein, human, UniProt P25815 1-95, looked up)
# chain: B1 chain with K95A
# notes: S100P, human, 95 amino acids, with the C-terminal lysine replaced by alanine; Identity confirmed by mass spectrometry; also called K95A S100P; K95A mutant rS100P; source: recombinant protein from pET15b vector after site-directed mutagenesis; details in Supplementary Methods S1
# B3: ΔK95 mutant recombinant S100P protein (natural protein, human, UniProt P25815 1-95, looked up)
# chain: MTELETAMGMIIDVFSRYSGSEGSTQTLTKGELKVLMEKELPGFLQSGKDKDAVDKLLKDLDANGDAQVDFSEFIVFVAAITSACHKYFEKAGL
# notes: S100P, human, with the C-terminal lysine (K95) deleted, so that the chain ends with leucine 94; Identity confirmed by mass spectrometry; also called ΔK95 S100P; ΔK95 mutant rS100P; source: recombinant protein from pET15b vector after site-directed mutagenesis; details in Supplementary Methods S1
# Molecular target: T1, recombinant protein consisting of the …
# Assay: resonant mirror biosensor (IAsys); rNMMIIA immobilised, rS100P variants in solution; dual-channel IAsys resonant mirror biosensor; association and dissociation curves fitted a single-site model at least as well as a two-site model; equilibrium and kinetic Kd
# Conditions: both partners purified
row,Binder,Kd
1,B1,370 to 470 nM
2,B2,2300 nM and 4100 nM
3,B3,2700 nM and 6000 nM
